# Data reported in PMC3313934, “Pinpointing P450s Associated with Pyrethroid Metabolism in the Dengue Vector, Aedes aegypti: Developing New Tools to Combat Insecticide Resistance” (PLoS Neglected Tropical Diseases, 2012).
# B1: CYP9J32 (Aedes aegypti) (protein)
# chain: VIYRQVKKHYDYFHDKPIPSMATVPLLGSTGPLMTKRCTFNDFIQTIYNKYPSAKIFGLFDMTTKMFVLRDPEVIKKITVKDFEYFVDRRPLFGANKEDDGNENILFNKTLVGMVDQRWRDMRAILSPAFTGSKMRAMFELIEQYCTQMVPILKEQSAESGYVDYEMKDFFSRVANDIIATCAFGLQVESLKSRDNEFYTMGKQMMNFNRFIVLLRVMGLRFFPSLMIKMGVDIVDREQNQYFSKIIKEAVRARETHGIVRPDMIHLLMQARKGTLKHQQETTESTAGFATVEESDVGKSVVSKTMSEPEFIAQCLIFFLAGFDTVSTGMLFMAYELALNPDIQQKLYEEIAQTNKELGGKPATYDTLQKMKYMDMVVSESLRMWPVAAFDRKCGRDYVLDDGAGLKFTIDAGTCIWVPVYGIHRDPKYYPNPDKFEPERFSDENRGKIDMTMYMPFGMGPRNCIGSRFALMEIKAIMYALLLNFSIERNEKTQVPLKLVKGFVGLQVENGLHLRFKKRK
# notes: full-length, ompA leader with Ala-Gly linker at N-terminus, E. coli DH5alpha membranes; co-expressed An. gambiae CPR, added An. gambiae cytochrome b5
# B2: CYP9J26 (Aedes aegypti) (protein)
# chain: MEVELLHVGVLVAIVAFLYRWITRNNDYFHDKPIPSMAVTPFLGASGPLLLRKVTFNDFVQSIYNKYPGVKVFGMFDTITPFFVIRDPELIKQIGIKDFDHFVDHRPTFGLDDETAEHPKALFRKTLFSMTGQRWKEMRATLSPAFTGSKMRQMFSLMSECCDEMMKHYLDKAKGSGRVEVEMKDLLSRISINVIASCAFGIKVDCFKEQEHEFLYHGRKMMGFGRPIVIARMLAMRVFPKFAAKFGIDLLDREQANYFTHVFQETIRARESHGYIRHDMIDLLLQARKGTLKYQEEKDDQEGFATVQESDVGKADVSKSMTEAEMIAQCLIFFLGGFDTVSTCAMFTAYELVRNPEVQHKLYEEIKQTEKELEGKPLSYDALQKMKYMDMVVSETLRMWPLAPATDRLCTQDYTIDDGQGVRFTIDKGTCVWFPAAGLHHDPQYFPNPEKFDPERFNDENKRNINLGAYLPFGIGPRNCIGSRFALMEVKAVMYFILLKFSFVRGAKTQIPMQLRKGFTNLGPENGMHVELKLR
# notes: full-length, ompA-Ala-Pro leader at N-terminus, pCW-ori+, E. coli DH5alpha membranes; co-expressed An. gambiae CPR, added An. gambiae cytochrome b5
# Key:
# CYP6Z2 = target: T1, CYP6Z2 (Anopheles gambiae, UniProt A8I285); assay: resorufin fluorescence turnover, recombinant membranes; format: biochemical; conditions: 5 µM substrate, NADPH regeneration, cyt b5, 0.1 M KPi pH 7.4, 25°C
# T1 construct: recombinant membrane preparation from earlier work; cytochrome b5 added
# T1 sequence (A8I285 1-492): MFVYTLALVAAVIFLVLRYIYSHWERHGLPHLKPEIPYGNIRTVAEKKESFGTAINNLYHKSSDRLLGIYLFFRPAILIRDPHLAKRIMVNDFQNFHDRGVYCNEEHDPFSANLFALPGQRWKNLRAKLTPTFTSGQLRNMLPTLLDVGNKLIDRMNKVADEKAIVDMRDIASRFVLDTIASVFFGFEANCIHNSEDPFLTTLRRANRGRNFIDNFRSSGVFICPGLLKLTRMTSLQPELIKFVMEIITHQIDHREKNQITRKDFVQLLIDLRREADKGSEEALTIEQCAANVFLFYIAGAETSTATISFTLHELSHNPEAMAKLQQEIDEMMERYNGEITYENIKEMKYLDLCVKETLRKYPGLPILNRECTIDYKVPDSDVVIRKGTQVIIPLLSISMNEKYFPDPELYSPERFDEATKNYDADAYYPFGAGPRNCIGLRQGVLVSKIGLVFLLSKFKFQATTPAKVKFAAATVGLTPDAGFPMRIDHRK
# [1] = substrate: CC1(C)C(C=C(Cl)Cl)C1C(=O)OCc1cccc(Oc2ccccc2)c1; assay: HPLC substrate depletion, recombinant E. coli membranes, Michaelis-Menten fit; format: biochemical, Aedes aegypti; conditions: 0.1 µM P450, 0.8 µM cyt b5, NADPH regeneration, 200 mM Tris-HCl pH 7.4, 30°C, 10 min, apparent
# Source text: (§1) HPLC substrate depletion, recombinant E. coli membranes, Michaelis-Menten fit on CYP9J32
# [2] = substrate: CC1(C)[C@H](C(=O)O[C@H](C#N)c2cccc(Oc3ccccc3)c2)[C@@H]1C=C(Br)Br; assay: as above; format: biochemical, Aedes aegypti; conditions: 0.1 µM P450, 0.8 µM cyt b5, NADPH regeneration, 200 mM Tris-HCl pH 7.4, 30°C, 10 min, apparent
# Source text: as §1
# [3] = substrate: CC1(C)C(C=C(Cl)Cl)C1C(=O)OCc1cccc(Oc2ccccc2)c1; assay: as above; format: biochemical, Aedes aegypti; conditions: 0.1 µM P450, 0.8 µM cyt b5, NADPH regeneration, 200 mM Tris-HCl pH 7.4, 30°C, 10 min, apparent; remark: listed apart in the source
# Source text: (§2) HPLC substrate depletion, recombinant E. coli membranes, Michaelis-Menten fit on CYP9J26
# [4] = substrate: CC1(C)[C@H](C(=O)O[C@H](C#N)c2cccc(Oc3ccccc3)c2)[C@@H]1C=C(Br)Br; assay: as above; format: biochemical, Aedes aegypti; conditions: 0.1 µM P450, 0.8 µM cyt b5, NADPH regeneration, 200 mM Tris-HCl pH 7.4, 30°C, 10 min, apparent; remark: listed apart in the source
# Source text: as §2
molecule,measurement,setting,value
COc1ccc2nc3ccc(=O)cc-3oc2c1 [RME],"resorufin fluorescence turnover, recombinant membranes",CYP6Z2,greatest activity towards RME for the resorufin ethers and L-ME for the proluciferins
B1,Km,[1],2.3 ± 1.1 µM
same,kcat,[1],0.0133 ± 0.00167 s⁻¹
same,Km,[2],5.2 ± 2.1 µM
same,kcat,[2],0.05 ± 0.00833 s⁻¹
B2,Km,[3],4.2 ± 0.9 µM
same,kcat,[3],0.01 ± 0.00167 s⁻¹
same,Km,[4],1.2 ± 0.2 µM
same,kcat,[4],0.00367 ± 0.000167 s⁻¹
